Measured values taken from patent US20240401082A1 (Sanofi, published 2024).
Values belong to the binder of their own block, whether it stands above or below them.

What was measured:
[1] = target: T1, human complement factor Bb (human, UniProt P00751 260-764); experiment: BLI (Octet), biotinylated target on streptavidin sensor
T1 construct: Bought from Complement Technology; Biotinylated with EZ-Link Sulfo-NHS-LC-LC-Biotin when captured in BLI; also called FBb

[2] = target: T1, human complement factor Bb; experiment: BLI (Octet), biotinylated target on streptavidin sensor; protein purified to >98%
Source text: (§1) Bio-layer interferometry (BLI) was used to assess the recombinant proteins' target engagement to and binding affinity for complement C1s enzyme (active C1s or “C1s” herein) and factor Bb (Bb) (Complement Technology, Tyler, TX, USA). C1s and Bb were biotinylated with EZ-Link™ Sulfo-NHS-LC-LC-Biotin (Thermo Fisher, Waltham, MA, USA) according to manufacturer instructions. Biotinylated C1s or Bb was loaded on Octet® Streptavidin (SA) Biosensors (Sartorius, Göttingen, Germany), followed by a concentration range of purified proteins. To assess dual target engagement, biotinylated active C1s or Bb was loaded onto sensors, followed by purified proteins (“first association phase”), followed by the non-captured complement target (Bb or active C1s, non-biotinylated; “second association phase”). The assays were performed at 30° C. using PBS with 0.1% Tween 20 as a diluent (FIG. 3).

cynomolgus Bb = target: T2, cynomolgus Bb (cynomolgus, UniProt A0A2K5TZY3 260-763); experiment: method not given
T2 construct: Named only in the sentence that gives the KD; also called cynomolgus target

[3] = target: T1, human complement factor Bb; experiment: BLI (Octet), biotinylated target on streptavidin sensor; partially purified mixture of the two scFabs from construct #9; mixture of the two scFabs from construct #9
Source text: as §1
(§2) The third expression construct, construct #9 (FIGS. 2B and 21), is composed of a bidirectional minCBA promoter driving expression of separate transcripts encoding human codon-optimized αBb scFab or αC1s scFab [αC1s scFab+αBb scFab], each followed by a bGH poly (A) signal.

[4] = target: T1, human complement factor Bb; experiment: BLI (Octet), biotinylated target on streptavidin sensor; mixture of the two scFabs from construct #9
Source text: as §1

[5] = target: T1, human complement factor Bb; experiment: cell-based or functional assay
[6] = target: T1, human complement factor Bb; experiment: cell-based or functional assay; remark: listed apart in the source
[7] = target: T1, human complement factor Bb; experiment: cell-based or functional assay; remark: listed apart in the source
[8] = target: T1, human complement factor Bb; experiment: SPR, purified protein
[9] = target: T1, human complement factor Bb; experiment: cell-based or functional assay; remark: listed apart in the source
[10] = target: T1, human complement factor Bb; experiment: cell-based or functional assay; remark: listed apart in the source
[11] = target: T1, human complement factor Bb; experiment: cell-based or functional assay; remark: listed apart in the source
[12] = target: T1, human complement factor Bb; experiment: BLI (Octet), biotinylated target on streptavidin sensor; remark: listed apart in the source
[13] = target: T3, human complement C1s enzyme (activated C1s) (human, UniProt P09871 16-437; P09871 438-688); experiment: as above
T3 construct: Bought from Complement Technology; Disulfide-linked heterodimer; Biotinylated with EZ-Link Sulfo-NHS-LC-LC-Biotin when captured in BLI; also called active C1s; aC1s
T3 sequence 1: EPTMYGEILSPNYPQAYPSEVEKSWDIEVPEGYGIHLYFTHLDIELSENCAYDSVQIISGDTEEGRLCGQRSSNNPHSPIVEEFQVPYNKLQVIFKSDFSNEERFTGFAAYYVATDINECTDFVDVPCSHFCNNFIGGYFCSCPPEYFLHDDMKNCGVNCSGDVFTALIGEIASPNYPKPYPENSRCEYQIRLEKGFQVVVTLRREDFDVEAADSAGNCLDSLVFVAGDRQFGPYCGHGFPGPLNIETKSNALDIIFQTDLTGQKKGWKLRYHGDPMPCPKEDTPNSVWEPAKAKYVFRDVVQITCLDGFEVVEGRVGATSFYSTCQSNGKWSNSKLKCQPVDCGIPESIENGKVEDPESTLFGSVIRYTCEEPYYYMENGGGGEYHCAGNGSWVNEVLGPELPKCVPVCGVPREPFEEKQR
T3 sequence 2: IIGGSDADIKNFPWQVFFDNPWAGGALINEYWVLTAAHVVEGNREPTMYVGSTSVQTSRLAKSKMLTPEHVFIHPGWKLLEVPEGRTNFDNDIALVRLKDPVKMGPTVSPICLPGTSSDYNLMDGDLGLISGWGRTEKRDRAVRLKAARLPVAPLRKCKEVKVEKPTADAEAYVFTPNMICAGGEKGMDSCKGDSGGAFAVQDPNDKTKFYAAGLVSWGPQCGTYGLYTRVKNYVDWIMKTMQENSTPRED

[14] = target: T3, human complement C1s enzyme (activated …); experiment: BLI (Octet), biotinylated target on streptavidin sensor; partially purified mixture of the two scFabs from construct #9
Source text: as §1, §2

[15] = target: T3, human complement C1s enzyme (activated …); experiment: BLI (Octet), biotinylated target on streptavidin sensor; protein purified to >98%
Source text: as §1

[16] = target: T3, human complement C1s enzyme (activated …); experiment: method not given
[17] = target: T3, human complement C1s enzyme (activated …); experiment: BLI (Octet), biotinylated target on streptavidin sensor; mixture of the two scFabs from construct #9; mixture of the two scFabs from construct #9
[18] = target: T3, human complement C1s enzyme (activated …); experiment: BLI (Octet), biotinylated target on streptavidin sensor; mixture of the two scFabs from construct #9
Source text: as §1

[19] = target: T3, human complement C1s enzyme (activated …); experiment: cell-based or functional assay
[20] = target: T3, human complement C1s enzyme (activated …); experiment: cell-based or functional assay; remark: listed apart in the source
[21] = target: T3, human complement C1s enzyme (activated …); experiment: cell-based or functional assay; remark: listed apart in the source
[22] = target: T3, human complement C1s enzyme (activated …); experiment: SPR, purified protein
[23] = target: T3, human complement C1s enzyme (activated …); experiment: cell-based or functional assay; remark: listed apart in the source
[24] = target: T3, human complement C1s enzyme (activated …); experiment: cell-based or functional assay; remark: listed apart in the source
[25] = target: cynomolgus C1s (cynomolgus); experiment: method not given
[26] = target: T3, human complement C1s enzyme (activated …); experiment: cell-based or functional assay; remark: listed apart in the source
[27] = target: T3, human complement C1s enzyme (activated …); experiment: BLI (Octet), biotinylated target on streptavidin sensor; remark: listed apart in the source

T1 sequence (P00751 260-764): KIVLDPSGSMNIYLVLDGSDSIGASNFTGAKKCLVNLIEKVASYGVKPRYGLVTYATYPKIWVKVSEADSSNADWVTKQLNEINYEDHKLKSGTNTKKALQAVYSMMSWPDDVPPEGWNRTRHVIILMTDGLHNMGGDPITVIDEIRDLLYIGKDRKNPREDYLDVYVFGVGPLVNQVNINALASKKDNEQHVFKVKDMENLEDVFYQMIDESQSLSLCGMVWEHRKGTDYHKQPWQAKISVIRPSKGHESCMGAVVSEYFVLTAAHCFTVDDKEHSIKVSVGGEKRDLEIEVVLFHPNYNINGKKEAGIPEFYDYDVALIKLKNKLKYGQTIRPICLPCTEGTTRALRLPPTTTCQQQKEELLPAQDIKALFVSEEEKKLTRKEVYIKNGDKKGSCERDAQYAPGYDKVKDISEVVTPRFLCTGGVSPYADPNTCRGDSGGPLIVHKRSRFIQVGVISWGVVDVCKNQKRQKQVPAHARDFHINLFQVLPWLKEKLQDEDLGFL
T2 sequence (A0A2K5TZY3 entry or part of it): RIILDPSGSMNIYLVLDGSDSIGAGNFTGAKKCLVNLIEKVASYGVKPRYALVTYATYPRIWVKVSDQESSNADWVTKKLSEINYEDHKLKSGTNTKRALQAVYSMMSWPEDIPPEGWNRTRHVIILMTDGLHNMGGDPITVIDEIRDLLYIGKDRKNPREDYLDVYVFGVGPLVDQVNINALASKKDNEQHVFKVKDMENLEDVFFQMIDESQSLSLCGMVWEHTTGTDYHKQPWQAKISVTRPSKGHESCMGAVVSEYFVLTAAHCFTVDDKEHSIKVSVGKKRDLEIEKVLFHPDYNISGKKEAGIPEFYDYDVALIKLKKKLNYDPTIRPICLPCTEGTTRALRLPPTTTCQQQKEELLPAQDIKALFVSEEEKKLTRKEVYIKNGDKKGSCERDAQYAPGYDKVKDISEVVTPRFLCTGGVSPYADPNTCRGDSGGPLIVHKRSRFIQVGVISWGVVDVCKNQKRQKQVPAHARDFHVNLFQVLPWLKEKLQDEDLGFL

Kd [1]: 0.7 nM
koff [1]: 0.00049 s⁻¹
kon [1]: 670000 M⁻¹ s⁻¹
Kd [2]: 0.7 nM
Kd (cynomolgus Bb): 14.8 nM
Kd [3]: 0.9 nM
Kd [4]: 0.8 nM
koff [4]: 0.0002 s⁻¹
kon [4]: 260000 M⁻¹ s⁻¹
IC50 AP (Wieslab) [5]: 193 nM
IC50 AP (Wieslab), mixture of scFabs from construct #9 [5]: 224 nM
Wieslab AP IC50 of #9-derived fragments, fold of purified anti-Bb Fab [6]: ~3 fold
Wieslab alternative pathway IC50 [7]: 190 nM
Kd [8]: 3.7 nM
IC50 (nM), complement activation with CP and AP activated simultaneously in vitro [9]: 633 nM
IC50 AP Wieslab EIA [10]: 193 nM
AP IC50 (Wieslab), mixture of scFabs from construct #9 [11]: 224 nM
B1: anti-Bb scFab (construct #4) (Fab)
chain: DIQMTQSPSTLSASVGDRVTITCKASQDVGTAVAWYQQKPGKAPKLLIYWASTRHTGVPDRFSGSGSGTDFTLTISSLQAEDFAVYFCHQHSSNPLTFGQGTKLEIKRTVAAPSVFIFPPSDEQLKSGTASVVCLLNNFYPREAKVQWKVDNALQSGNSQESVTEQDSKDSTYSLSSTLTLSKADYEKHKVYACEVTHQGLSSPVTKSFNRGECGGGGSGGGGSGGGGSGGGGSGGGGSGGGGSGGGGSEVQLVESGGGLVKPGGSLRLSCAASGFTFSNYAMSWVRQAPGKRLEWVATISNRGSYTYYPDSVKGRFTISRDNAKNSLYLQMNSLRAEDTALYYCARERPMDYWGQGTLVTVSSASTKGPSVFPLAPCSRSTSESTAALGCLVKDYFPEPVTVSWNSGALTSGVHTFPAVLQSSGLYSLSSVVTVPSSSLGTKTYTCNVDHKPSNTKVDKRV
notes: Single-chain Fab: LC-(G4S)7-HC (VH-CH1); there it stood in a mixture with the anti-C1s scFab; also called αBb scFab; Purified anti-Bb scFab

Kd [1]: 0.73 nM
koff [1]: 0.00051 s⁻¹
kon [1]: 700000 M⁻¹ s⁻¹
IC50 AP (Wieslab) [5]: 144 nM
Kd [12]: 0.7 nM
Wieslab alternative pathway IC50 [7]: 144 nM
Kd [8]: 2.7 nM
IC50 (nM), complement activation with CP and AP activated simultaneously in vitro [9]: 463 nM
AP IC50 (Wieslab) [11]: 99 nM
B2: parental anti-Bb Fab (Fab, V domains shown)
VH: EVQLVESGGGLVKPGGSLRLSCAASGFTFSNYAMSWVRQAPGKRLEWVATISNRGSYTYYPDSVKGRFTISRDNAKNSLYLQMNSLRAEDTALYYCARERPMDYWGQGTLVTVSS
VL: DIQMTQSPSTLSASVGDRVTITCKASQDVGTAVAWYQQKPGKAPKLLIYWASTRHTGVPDRFSGSGSGTDFTLTISSLQAEDFAVYFCHQHSSNPLTFGQGTKLEIKR
notes: also called Purified anti-Bb Fab

Kd [13]: 0.3 nM
Kd [14]: 1.8 nM
Kd [15]: 0.3 nM
Kd [16]: 0.34 nM
Kd [17]: 1.9 nM
koff [18]: 0.00028 s⁻¹
kon [18]: 150000 M⁻¹ s⁻¹
IC50 CP (Wieslab) [19]: 7.2 nM
IC50 CP (Wieslab), mixture of scFabs from construct #9 [19]: 157 nM
Wieslab CP IC50 of #9-derived fragments, fold of purified anti-C1s Fab [20]: ~25 fold
Wieslab classical pathway IC50 [21]: 6.7 nM
Kd [22]: 0.3 nM
IC50 (nM), complement activation with CP and AP activated simultaneously in vitro [23]: 97.3 nM
IC50 CP Wieslab EIA [24]: 7.2 nM
Kd [25]: 0.016 nM
CP IC50 (Wieslab), mixture of scFabs from construct #9 [26]: 157 nM
B3: anti-C1s scFab (construct #2) (Fab)
chain: DIVLTQSPDSLAVSLGERATISCKASQSVDYDGDSYMNWYQQKPGQPPKILIYDASNLESGIPARFSGSGSGTDFTLTISSLEPEDFAIYYCQQSNEDPWTFGGGTKVEIKRTVAAPSVFIFPPSDEQLKSGTASVVCLLNNFYPREAKVQWKVDNALQSGNSQESVTEQDSKDSTYSLSSTLTLSKADYEKHKVYACEVTHQGLSSPVTKSFNRGECGGGGSGGGGSGGGGSGGGGSGGGGSGGGGSGGGGSQVQLVQSGAEVKKPGASVKLSCTASGFNIKDDYIHWVKQAPGQGLEWIGRIDPADGHTKYAPKFQVKVTITADTSTSTAYLELSSLRSEDTAVYYCARYGYGREVFDYWGQGTTVTVSSASTKGPSVFPLAPCSRSTSESTAALGCLVKDYFPEPVTVSWNSGALTSGVHTFPAVLQSSGLYSLSSVVTVPSSSLGTKTYTCNVDHKPSNTKVDKRV
notes: Single-chain Fab: LC-(G4S)7-HC (VH-CH1); there it stood in a mixture with the anti-Bb scFab; also called αC1s scFab; Purified anti-C1s scFab

Kd [13]: 0.3 nM
IC50 CP (Wieslab) [19]: 5.4 nM
Kd [27]: 0.3 nM
Wieslab classical pathway IC50 [21]: 5.5 nM
Kd [22]: 0.3 nM
IC50 (nM), complement activation with CP and AP activated simultaneously in vitro [23]: 68.2 nM
CP IC50 (Wieslab) [26]: 6 nM
B4: parental anti-C1s Fab (Fab, V domains shown)
VH: QVQLVQSGAEVKKPGASVKLSCTASGFNIKDDYIHWVKQAPGQGLEWIGRIDPADGHTKYAPKFQVKVTITADTSTSTAYLELSSLRSEDTAVYYCARYGYGREVFDYWGQGTTVTVSS
VL: DIVLTQSPDSLAVSLGERATISCKASQSVDYDGDSYMNWYQQKPGQPPKILIYDASNLESGIPARFSGSGSGTDFTLTISSLEPEDFAIYYCQQSNEDPWTFGGGTKVEIKR
notes: also called Purified anti-C1s Fab
